According to PMC11401214, “A new generation of nanobody research tools using improved mass spectrometry-based discovery methods” (The Journal of Biological Chemistry, 2024):
Values belong to the binder of their own block, whether it stands above or below them.

Key:
Experiment in all cases: SPR; Biacore 8K; antigen immobilised on CM5 chip by amine coupling at 1 ug/ml (tdTomato) or 5 ug/ml (GST, IgGs) in 10 mM sodium acetate pH 5.5; nanobody injected in single-cycle kinetics at 0.1-10 nM; 20 mM Na-Hepes pH 7.4, 150 mM NaCl, 0.05% Tween 20; Langmuir 1:1 model, RIgG-1 and GIgG-4 fit to a two-step binding model
Design in all cases: kon of step 1 (2-state binding model) / koff of step 1 (2-state binding model) / koff of step 2 (2-state binding model): unit not given here
goat IgG (goat) = target: goat IgG (goat)
mouse IgG (mouse) = target: mouse IgG (mouse)
rabbit IgG (rabbit) = target: rabbit IgG (rabbit)

Kd (goat IgG (goat)): 0.49 nM
B1: LaGIgG-12 (VHH)
VHH: QVQLVESGGGLVQAGGSLRLSCSASGRTLSTYAMGWFRQAPGKEREFVAVISRSGGSTHYVESVKGRFTIVRDNAKNTVYLQMDSLKPEDTAVYYCAVPKYTDYALSPEDFGSWGQGTQVTVS

Kd (mouse IgG (mouse)): 0.6 nM
B2: LaMIgG-9 (VHH)
VHH: QVQLVESGGGLVQAGGSLSLSCATSGRTGDLYAMAWFRQAPGAEREFVATVTAIGGATYYADSVKGRFTISASYARNMVYLQMNSLKPEDSAVYYCAASMKRVWPLHRSDEAEYWGQGTQVTVS

Kd (goat IgG (goat)): 0.82 nM
koff of step 1 (2-state binding model) (goat IgG (goat)): 0.011
koff of step 2 (2-state binding model) (goat IgG (goat)): 0.00033
kon of step 1 (2-state binding model) (goat IgG (goat)): 2.2e+06
kon of step 2 (2-state binding model) (goat IgG (goat)): 0.0018 s⁻¹
B3: LaGIgG-4 (VHH)
VHH: DVQLVESGGGLVQAGGSLRLSCAASGITFSRSTMGWHRQAPGKRRELVASINAVGSTNYVPSVKGRFTISRDNAKNTVTLQMNSLEPEDTGVYYCVSDPYDDPRRYWGPGTQVTVS

Kd (mouse IgG (mouse)): 0.42 nM
B4: LaMIgG-5 (VHH)
VHH: DVQLVESGGGSVQAGGSLRLSCAASGFIFSKDVMNWFRQAPGKERELVAFINPSGTTHYVDSVKGRFTISRDNVKSTVYLQMNDLKPDDTAVYYCQTRKFVGTTWRDYWGQGTQVTVS

Kd (rabbit IgG (rabbit)): < 0.014 nM
B5: LaRIgG-2 (VHH)
VHH: QVQLVESGGGLVQAGGSLRLSCVASGGTFSDWPKGWFRQAPGKEREFVAAINWNGSGTTYADSVKGRFTISRDNAKNAVYLEMNSLKPEDTAVYSCASTFGGIRSVGTNDYWGRGTQVTVS

Kd (rabbit IgG (rabbit)): 0.36 nM
koff of step 1 (2-state binding model) (rabbit IgG (rabbit)): 0.0034
koff of step 2 (2-state binding model) (rabbit IgG (rabbit)): 0.00026
kon of step 1 (2-state binding model) (rabbit IgG (rabbit)): 890000
kon of step 2 (2-state binding model) (rabbit IgG (rabbit)): 0.0026 s⁻¹
B6: LaRIgG-1 (VHH)
VHH: QVQLAESGGGLVQPGGSLRLSCVVSGGTFGRYDMGWFRQAPGKEREFVAAISREVTTNYGDSVRGRFTISRDNAENTVHLLMNSLKPEDTAVYYCAADDAHRYSGTYYLSQDFRYTYWGQGTQVTVS

Kd (rabbit IgG (rabbit)): 0.053 nM
B7: LaRIgG-7 (VHH)
VHH: DVQLVESGGGLVQTGGSLRLSCAASGRTFTTYDLAWFRQAPGKERECVAAVSRIGTTYYPDSVKGRFTISTDTAQNTVYLQMNSLKPEDTAVYYCASAKFGSRWIRAKTSEGNYDDWGRGTQVTVS

Kd (mouse IgG (mouse)): 1.2 nM
B8: LaMIgG-8 (VHH)
VHH: QVQLVESGGGLVQAGGSLKLSCATSGFTFSTSVMNWFRQAPGKERDMVAFINPSGSTNYVDSVKGRFTISRDSTKNTVYLQMNSLKPEDTAVYYCQTRLLVDSGWRDYWGQGTQVTVS

Kd (mouse IgG (mouse)): 0.21 nM
B9: LaMIgG-14 (VHH)
VHH: QVQLVESGGGLVQAGGSLRLSCAASGFTFSTSVMNWFRQAPGKEREMVAFINPSGSTHYVDSVKGRFTISRDSAKNTVYLQLNSLKPEDTAVYYCQTRLFVGAGWRDYWGQGTQVTVS
